The source of these data is article PMC11879086, “Identification and characterization of a human MORC2 DNA binding region that is required for gene silencing” (Nucleic Acids Research, 2024).

One data set has as its target T1, MORC2 1-603 (Homo sapiens, UniProt Q9Y6X9 1-603).
T1 sequence: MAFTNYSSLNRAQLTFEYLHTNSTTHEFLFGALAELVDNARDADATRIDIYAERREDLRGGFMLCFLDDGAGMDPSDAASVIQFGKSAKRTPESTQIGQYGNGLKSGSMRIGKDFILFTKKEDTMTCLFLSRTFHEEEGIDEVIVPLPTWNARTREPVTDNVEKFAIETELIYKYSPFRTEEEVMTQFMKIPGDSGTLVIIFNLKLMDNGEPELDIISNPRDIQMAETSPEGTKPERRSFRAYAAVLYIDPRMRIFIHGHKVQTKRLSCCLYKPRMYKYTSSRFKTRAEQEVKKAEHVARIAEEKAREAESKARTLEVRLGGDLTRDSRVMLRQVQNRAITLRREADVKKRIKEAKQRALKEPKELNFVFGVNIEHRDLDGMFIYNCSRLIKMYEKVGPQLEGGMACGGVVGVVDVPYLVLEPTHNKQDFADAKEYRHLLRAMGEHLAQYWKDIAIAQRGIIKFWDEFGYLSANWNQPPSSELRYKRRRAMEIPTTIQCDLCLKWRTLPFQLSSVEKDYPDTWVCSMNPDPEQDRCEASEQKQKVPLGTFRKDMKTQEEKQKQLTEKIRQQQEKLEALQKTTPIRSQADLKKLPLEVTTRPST
Nature of the data set: fluorescence anisotropy; apo; FA/EMSA: 50 mM NaCl, 3 mM MgCl2, 20 mM Na-HEPES pH 7.4, 1 mM TCEP, 10% glycerol, 0.025 mM ZnCl2, 50 ug/ml BSA, room temperature; 1 nM nucleic acid (FA) or 20 nM DNA (EMSA). The note with it: protein: recombinant; tags: tag removed by TEV; label: 5'-6-FAM; blunt.

For another data set, the target named is T2, MORC2 subset C (Homo sapiens, UniProt Q9Y6X9 1-1032, R754D;R755D;K756D;R758D;K760D;R761D).
T2 sequence: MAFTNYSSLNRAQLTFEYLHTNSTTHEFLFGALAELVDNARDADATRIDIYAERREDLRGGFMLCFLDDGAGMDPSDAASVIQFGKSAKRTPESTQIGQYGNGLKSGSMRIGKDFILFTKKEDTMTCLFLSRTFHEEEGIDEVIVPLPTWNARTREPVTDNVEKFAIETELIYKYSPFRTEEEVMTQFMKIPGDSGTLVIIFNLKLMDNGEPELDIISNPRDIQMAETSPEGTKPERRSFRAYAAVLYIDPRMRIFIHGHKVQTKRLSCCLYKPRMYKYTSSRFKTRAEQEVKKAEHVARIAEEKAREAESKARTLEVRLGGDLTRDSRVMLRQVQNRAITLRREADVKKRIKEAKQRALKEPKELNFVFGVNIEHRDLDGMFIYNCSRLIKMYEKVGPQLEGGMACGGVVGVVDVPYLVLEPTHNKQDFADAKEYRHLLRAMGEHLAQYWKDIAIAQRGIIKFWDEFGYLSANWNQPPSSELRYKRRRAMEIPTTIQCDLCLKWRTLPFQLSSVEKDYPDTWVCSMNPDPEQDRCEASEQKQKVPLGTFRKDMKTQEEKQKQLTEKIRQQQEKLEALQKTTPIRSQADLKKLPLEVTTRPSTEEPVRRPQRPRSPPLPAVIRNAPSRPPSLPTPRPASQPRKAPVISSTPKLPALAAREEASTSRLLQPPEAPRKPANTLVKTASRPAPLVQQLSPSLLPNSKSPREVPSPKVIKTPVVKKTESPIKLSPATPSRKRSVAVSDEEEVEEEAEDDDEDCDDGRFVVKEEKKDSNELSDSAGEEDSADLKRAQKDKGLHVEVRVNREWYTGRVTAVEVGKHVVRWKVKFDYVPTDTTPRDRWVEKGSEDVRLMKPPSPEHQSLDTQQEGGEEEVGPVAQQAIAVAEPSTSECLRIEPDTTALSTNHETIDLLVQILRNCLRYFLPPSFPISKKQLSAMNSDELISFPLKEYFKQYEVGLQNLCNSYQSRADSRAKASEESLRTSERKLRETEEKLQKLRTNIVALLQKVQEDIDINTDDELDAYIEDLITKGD
The description is as above. The note with it: protein: recombinant; tags: tag removed by TEV; chain copies: 2; label: 5'-6-FAM; blunt.

B1: Random 35mer dsDNA (dsDNA)
DNA 1: ATAGGGTCCATCAGAATTCGGATGAACTCGGTGTG
DNA 2: CACACCGAGTTCATCCGAATTCTGATGGACCCTAT
As to B1, the Kd amounted to 446 ± 119 nM in the data set with MORC2 1-603 and 60 ± 20 nM with MORC2 subset C.
